Measured values as given in patent US20230128075A1 (University of Texas, published 2023).

Experiments:
[1] = target: T1, ADP-HSP70 (ADP-enriched HSP70) (Homo sapiens (Human), UniProt P0DMV8 1-641); assay: BLI, 77A on sensor
T1 construct: also called ADP-HSP70 complexes
Experimental: HSP70 was expressed in SF9 cells. Affinity chromatography using resins selective for ADP or ATP-binding proteins were used to enrich bulk preparations of the correspondingly bound HSP70 recombinant protein. Protein concentrations, determined after elution, were measured so that equal concentrations could be used in subsequent assays. For BLI-based assays, antibodies and reagents were diluted out onto microwell plates and loaded into the instrument. Antibodies being tested were immobilized onto dip-and-read sensors and then observed for kinetics during binding to ATP or ADP-enriched HSP70. For ELISA, the relevant enriched HSP70 proteins were directly coated onto ELISA plate wells overnight. Test antibodies were then serially diluted across the plate wells, and detected using an appropriate secondary antibody-HRP conjugate. The plates were developed using a TMB substrate, and the O.D. stabilized using an acid stop solution.

[2] = target: T2, 534; assay: immunoprecipitation of cell extracts with 77A, Western blot with anti-GFP [panel B]
T2 construct: lane label in panels A and B
Experimental: (§1) IP of cell extracts with 77A was followed by detection of proteins by Western blotting (WB) with an anti-GFP antibody (B). Smaller deletions were then generated for finer mapping (C), and the indicated IPs were performed from cell lysates (CL) or culture media supernatants (CM). Loading was confirmed with an a-light chain (LC) antibody. The putative binding domain for 77A is indicated on a molecular model of HSP70 representing the relevant region of the protein (D). The exact amino acids that comprise the 77A epitope were determined using alanine scanning analysis, and the results are shown in (E), and the ribbon diagram showing the primary and secondary critical sites is shown in (F).
(§2) Alanine scanning analysis was performed to identify key amino acids in HSP70 with which 77A interacts (FIG. 3E).

[3] = target: T3, 614; assay: immunoprecipitation from cell lysate (CL) with 77A, Western blot GFP [panel C]
T3 construct: lane label in panel C
Experimental: as §1, §2

T1 sequence (P0DMV8 whole entry): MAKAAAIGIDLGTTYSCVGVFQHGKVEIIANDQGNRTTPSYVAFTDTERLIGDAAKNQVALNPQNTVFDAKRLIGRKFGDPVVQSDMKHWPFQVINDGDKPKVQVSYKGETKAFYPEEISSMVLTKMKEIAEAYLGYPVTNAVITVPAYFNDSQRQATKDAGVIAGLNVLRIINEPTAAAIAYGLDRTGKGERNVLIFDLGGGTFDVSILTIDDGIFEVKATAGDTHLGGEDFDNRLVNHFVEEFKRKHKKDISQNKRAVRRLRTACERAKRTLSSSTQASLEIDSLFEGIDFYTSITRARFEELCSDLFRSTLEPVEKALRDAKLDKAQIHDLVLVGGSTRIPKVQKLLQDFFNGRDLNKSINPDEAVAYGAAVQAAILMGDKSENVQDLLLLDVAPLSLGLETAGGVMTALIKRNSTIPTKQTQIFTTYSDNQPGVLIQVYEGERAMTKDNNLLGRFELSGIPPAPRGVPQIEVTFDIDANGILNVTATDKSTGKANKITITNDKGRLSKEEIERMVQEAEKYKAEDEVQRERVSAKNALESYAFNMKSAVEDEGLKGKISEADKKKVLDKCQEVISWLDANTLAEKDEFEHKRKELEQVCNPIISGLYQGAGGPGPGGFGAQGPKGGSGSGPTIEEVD
T2 sequence (chain, as listed by the source limits assumed): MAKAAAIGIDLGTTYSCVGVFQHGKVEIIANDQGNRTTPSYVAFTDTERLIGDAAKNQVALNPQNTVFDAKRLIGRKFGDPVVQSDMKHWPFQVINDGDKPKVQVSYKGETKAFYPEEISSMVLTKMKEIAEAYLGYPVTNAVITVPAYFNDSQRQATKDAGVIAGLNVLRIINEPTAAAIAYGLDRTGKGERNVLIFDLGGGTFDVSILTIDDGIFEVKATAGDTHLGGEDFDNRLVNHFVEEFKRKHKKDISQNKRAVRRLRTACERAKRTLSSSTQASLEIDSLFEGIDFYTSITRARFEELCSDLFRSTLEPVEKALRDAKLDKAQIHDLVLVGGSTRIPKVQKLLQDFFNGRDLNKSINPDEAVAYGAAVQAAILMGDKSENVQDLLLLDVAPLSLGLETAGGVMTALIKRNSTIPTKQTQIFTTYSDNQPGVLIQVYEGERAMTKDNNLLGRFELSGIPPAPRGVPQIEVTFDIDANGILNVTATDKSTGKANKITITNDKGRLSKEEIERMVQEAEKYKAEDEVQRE
T3 sequence (chain, as listed by the source limits assumed): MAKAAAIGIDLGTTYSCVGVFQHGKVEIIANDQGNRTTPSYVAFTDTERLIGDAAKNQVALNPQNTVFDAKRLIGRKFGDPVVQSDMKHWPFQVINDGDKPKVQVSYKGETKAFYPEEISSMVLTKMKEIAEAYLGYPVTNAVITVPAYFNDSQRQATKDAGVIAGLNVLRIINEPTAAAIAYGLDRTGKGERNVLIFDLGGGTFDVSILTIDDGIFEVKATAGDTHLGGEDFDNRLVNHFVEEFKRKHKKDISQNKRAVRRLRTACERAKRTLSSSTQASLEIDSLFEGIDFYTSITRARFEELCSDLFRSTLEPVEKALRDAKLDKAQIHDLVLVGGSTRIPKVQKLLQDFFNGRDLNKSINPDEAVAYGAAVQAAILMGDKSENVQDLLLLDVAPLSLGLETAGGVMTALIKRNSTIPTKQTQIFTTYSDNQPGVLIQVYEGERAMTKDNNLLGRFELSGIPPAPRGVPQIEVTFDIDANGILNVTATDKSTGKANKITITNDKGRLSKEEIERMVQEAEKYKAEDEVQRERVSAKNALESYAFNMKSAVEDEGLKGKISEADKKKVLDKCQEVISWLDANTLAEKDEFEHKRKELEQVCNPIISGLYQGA

fold greater affinity (KD) than for ATP-enriched HSP70 [1]: ≥ 4 fold
binding result [2]: binds
binding result [3]: binds
B1: 77A antibody (clone 77A, murine anti-HSP70 mAb) (antibody, V domains shown)
VH: QIQLVQSGPELKKPGETVKISCKASGYTFTNYGMNWVKQAPGKGLKWMGWINTYTGEPTYADDFKGRFAFSLETSATTAYLQINNLKNEDTATYFCARYDHAMDYWGQGTSVTVSS
VL: DIVMSQSPSSLAVSAGEKVTMSCKSSQSLLNSGTRKNYLAWYQQKPGQSPKLLIYWTSTRESGVPDRFTGSGSGTDFTLTINSVQAEDLAVYYCKQSYTLYTFGGGTKLEIK
notes: Murine hybridoma mAb; its isotype control is IgG2B; also called mAb 77A
